From patent publication US20250353910A1 (INVENRA, published 2025) come the findings set out here.

Experiment [1] concerns the target T1, Recombinant Rat B7-H3 Fc Chimera Protein (R&D Systems Cat #10610-B3-050) (rat, UniProt Q7TPB4 29-244).
T1 construct: Bought Fc chimera; not shown: Fc part of the chimera
T1 sequence (looked up): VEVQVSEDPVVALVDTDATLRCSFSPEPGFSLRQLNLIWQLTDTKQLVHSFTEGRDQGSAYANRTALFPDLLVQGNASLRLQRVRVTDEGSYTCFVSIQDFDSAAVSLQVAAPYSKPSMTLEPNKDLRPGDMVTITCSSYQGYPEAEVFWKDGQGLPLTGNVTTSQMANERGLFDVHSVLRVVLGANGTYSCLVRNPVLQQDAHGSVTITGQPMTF
The experiment in a line: BLI (Octet), bispecific antibody captured on biosensor, soluble antigen; via kinetics. The procedure: (§1) Soluble antigens (e.g., B7H3 or GD2) were then added to the system and binding was measured.

For experiment [2], the target named is T2, Cynomolgus B7H3, His-tagged protein (AcroBiosystems Cat #B73-C52Ha) (cynomolgus).
T2 construct: Bought soluble protein; also called Cyno B7H3
The experiment is described as above. How it is done: as §1

Experiment [3] concerns the target T1, Recombinant Rat B7-H3 Fc Chimera …. As to the kind of experiment: BLI (Octet), bispecific antibody captured on biosensor, soluble antigen. How it is done: as §1
Experiment [4] concerns the target T2, Cynomolgus B7H3, His-tagged protein …. The description is as above. The procedure:
as §1

B1: Exemplary Bispecific Antibody 1 (B7H3 x GD2) (bispecific antibody)
chain 1: not shown
chain 2: EVQLVESGGGLVQPGGSLRLSCAASGFTFSTYYIHWVRQAPGKGLEWVAWIHPSGKYTYYADSVKGRFTISADTSKNTAYLQMNSLRAEDTAVYYCARHYQVGAMDYWGQGTLVTVSSAQPREPQVYTLPPCRDWLTKNQVSLTCLVKGFYPSDIAVEWESNGQPENNYKTTPPVLDSDGSFFLYSKLTVDKSRWQQGNVFSCSVMHEALHNHYTQKSLSLSPGK
chain 3: not shown
chain 4: EVQLVESGGGLVQPGGSLRLSCAASGSSFTGYNMNWVRQAPGKGLEWVAAIDPYYGGTYYADSVKGRFTISADTSKNTAYLQMNSLRAEDTAVYYCASGMEYWGQGTLVTVSSASTKGPSVFPLAPSSKSTSGGTAALGCLVKDYFPEPVTVSWNSGALTSGVHTFPAVLQSSGLYSLSSVVTVPSSSLGTQTYICNVNHKPSNTKVDKKVEPKSC
notes: B7H3 arm on chains 1 and 2, GD2 arm on chains 3 and 4; also called Ex. bsAb; 1×1 bispecific antibody
A word on the Kd: it is a measure of binding affinity in units of concentration. By koff is commonly meant the rate constant with which the complex falls apart. Usually kon stands for the second-order rate constant of association. For the molecule B1, the equilibrium dissociation constant (Kd) is 6.88 nM in experiment [1] and 1.16 nM in experiment [2]. For the same molecule, the dissociation rate constant (koff) in experiment [3] was determined as 0.00137 s⁻¹; in experiment [4], 0.000239 s⁻¹. The on-rate constant (kon) in experiment [3] stood at 199000 M⁻¹ s⁻¹; in experiment [4], 206000 M⁻¹ s⁻¹.
